Assay results reported in publication PMC9398157.
“And” between values parts separate entries of the source, which are not always exact repeats. Identical values can stand only once. Like-named read-outs stand apart in the source and are kept apart here.

What was measured:
[1] = molecular target: DR5 on Colo205 and H-EMC-SS cells (Homo sapiens) (UniProt O14763)
[2] = molecular target: Death receptor 5 (human DR5), as used in SPR, Octet and ELISA (human) (UniProt O14763); assay: SPR
[3] = molecular target: Death receptor 5 (human DR5), as used in SPR, Octet and ELISA (human) (UniProt O14763); assay: SPR; remark: listed apart in the source
[4] = molecular target: DR5 on Colo205 and H-EMC-SS cells (Homo sapiens) (UniProt O14763); assay: flow cytometry on cells
[5] = molecular target: DR5 on Colo205 and H-EMC-SS cells (Homo sapiens) (UniProt O14763); assay: flow cytometry on cells; remark: listed apart in the source

EC50 [4]: 0.2 nM | EC50 [5]: 0.073 nM
Substance: IGM-8444 (antibody)
cytotoxicity on Colo205 cells, IC50 (CellTiter-Glo viability after 24 hours) [1]: 1.1 ng/mL and 1.3 pmol/L | cytotoxicity on H-EMC-SS cells, IC50 (CellTiter-Glo viability after 24 hours) [1]: 0.32 ng/mL and 0.37 pmol/L | Kd [2]: < 0.011 nM | Kd [3]: 85 nM
